Measured values from US20250049896A1 (Regeneron, published 2025).
Numbering of substitutions follows the chain as printed. One block for each binder: values may come before it.

Key:
[1] = biological target: T1, mf TFRC ecto-mmh (REGN2054), monomeric monkey (cyno) Tfrc ectodomain with C-terminal myc-myc-hexahistidine tag (monkey (cyno), Macaca fascicularis, UniProt H9EXL1 89-760); assay: SPR (Biacore), mAb captured on anti-human Fc, 100 nM mfTfR-mmh, 25 C
T1 construct: range 89-760; also called mfTfR-mmh; mfTFR-mmh
Method: (§1) Biacore binding kinetics assays were conducted for the interaction of 32 anti-human TfR IgG1 monoclonal antibodies from CHO supernatants with TfR reagents at 25° C.
(§2) Equilibrium dissociation constants (KD) for the interaction of anti-TfR monoclonal antibodies with human and fascicularis monkey TfR ecto domain recombinant proteins were determined using a real-time surface plasmon resonance (SPR) based Biacore S200 biosensor. All binding studies were performed in 10 mM HEPES, 150 mM NaCl, 3 mM EDTA, and 0.05% v/v surfactant Tween-20, pH 7.4 (HBS-EP) running buffer at […]. The Biacore CM5 sensor surface was first derivatized by amine coupling with a monoclonal mouse anti-human Fc antibody (REGN2567) followed by a step to capture anti-TfR monoclonal antibodies in CHO conditioned media. […] The dissociation of TfR bound to anti-TfR monoclonal antibodies was monitored for 3 minutes in HBS-EP running buffer. At the end of each cycle, the anti-TfR monoclonal antibodies capture surface was regenerated using a 12-sec injection of 20 mM H₃PO₄. The association rate (ka) and dissociation rate (kd) were determined by fitting the real-time binding sensorgrams to a 1:1 binding model with mass transport limitation using Scrubber 2.0 c software. The dissociation equilibrium constant (KD) and dissociative half-life (t½) were calculated from the kinetic rate constants as: […]

[2] = biological target: T2, hmm.hTfRC (REGN2431), human transferrin receptor extracellular domain with hexahistidine-myc-myc tag (human, UniProt P02786 89-760); assay: SPR (Biacore), mAb captured on anti-human Fc, 100 nM hTFR-mmh, 25 C
T2 construct: Monomeric recombinant protein, 79210 g/mol; also called hTFR-mmh; His-myc-myc-hTFRC ecto
Method: as §1, §2

T2 sequence (P02786 other isoform, or with tags, fused parts or gaps): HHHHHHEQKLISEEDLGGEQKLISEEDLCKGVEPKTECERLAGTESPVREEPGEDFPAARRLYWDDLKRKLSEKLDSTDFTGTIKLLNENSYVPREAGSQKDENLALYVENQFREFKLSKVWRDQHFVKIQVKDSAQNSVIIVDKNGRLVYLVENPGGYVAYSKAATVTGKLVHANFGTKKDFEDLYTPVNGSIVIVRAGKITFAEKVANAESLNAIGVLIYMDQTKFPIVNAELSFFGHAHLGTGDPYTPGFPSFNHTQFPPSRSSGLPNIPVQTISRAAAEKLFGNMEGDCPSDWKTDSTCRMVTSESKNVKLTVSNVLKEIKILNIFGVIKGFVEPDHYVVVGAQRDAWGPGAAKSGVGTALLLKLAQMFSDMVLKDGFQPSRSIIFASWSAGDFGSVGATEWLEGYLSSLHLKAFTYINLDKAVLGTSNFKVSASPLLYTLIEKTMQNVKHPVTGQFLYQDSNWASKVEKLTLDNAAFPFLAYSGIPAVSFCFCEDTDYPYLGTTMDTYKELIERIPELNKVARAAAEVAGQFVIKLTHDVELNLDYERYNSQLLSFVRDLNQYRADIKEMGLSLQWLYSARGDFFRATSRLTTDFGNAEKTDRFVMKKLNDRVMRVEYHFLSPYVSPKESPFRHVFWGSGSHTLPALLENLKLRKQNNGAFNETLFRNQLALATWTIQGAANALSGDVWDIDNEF
T1 sequence (chain, as listed by the source): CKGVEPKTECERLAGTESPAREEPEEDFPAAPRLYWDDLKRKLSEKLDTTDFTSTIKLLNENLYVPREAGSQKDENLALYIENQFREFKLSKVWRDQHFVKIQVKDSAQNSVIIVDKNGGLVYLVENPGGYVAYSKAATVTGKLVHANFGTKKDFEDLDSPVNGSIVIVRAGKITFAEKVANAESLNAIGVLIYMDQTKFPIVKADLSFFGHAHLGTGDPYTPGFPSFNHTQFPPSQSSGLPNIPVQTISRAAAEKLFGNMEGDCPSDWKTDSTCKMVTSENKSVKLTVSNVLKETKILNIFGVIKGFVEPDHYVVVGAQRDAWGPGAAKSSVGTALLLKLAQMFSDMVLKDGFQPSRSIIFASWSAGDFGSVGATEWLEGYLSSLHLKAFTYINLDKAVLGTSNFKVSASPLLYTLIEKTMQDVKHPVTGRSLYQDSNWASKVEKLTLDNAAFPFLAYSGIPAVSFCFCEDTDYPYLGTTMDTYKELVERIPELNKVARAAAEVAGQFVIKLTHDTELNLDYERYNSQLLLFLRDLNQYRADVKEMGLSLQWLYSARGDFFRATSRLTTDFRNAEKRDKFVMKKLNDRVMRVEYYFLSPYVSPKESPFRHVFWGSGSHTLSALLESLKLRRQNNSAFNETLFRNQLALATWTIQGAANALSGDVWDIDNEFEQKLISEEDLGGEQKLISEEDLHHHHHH

B1: 12833B (antibody, human IgG1, kappa, V domains shown)
VH: QVQLVESGGGVVQPGRSLRLSCAASGFTFSSFGMHWVRQAPGKGLEWVIFISYDGSDKYYADSVKGRFAISRDSSKNTLYLQMNSLRAEDTAVYYCAKENGILTDSYGMDVWGQGTTVTVSS
VL: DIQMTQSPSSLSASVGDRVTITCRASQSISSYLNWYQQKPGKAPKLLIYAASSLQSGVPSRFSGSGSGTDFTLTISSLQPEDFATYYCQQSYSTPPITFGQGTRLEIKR
notes: Tested as bivalent human IgG1 from CHO primary supernatant
- 100 nM Ag Bound (RU) [1]: 346 RU
- Kd [1]: 7.02 nM
- koff [1]: 0.000486 s⁻¹
- kon [1]: 69200 M⁻¹ s⁻¹
- t½ [1]: 23.8 min
- 100 nM Ag Bound (RU) [2]: 409 RU
- Kd [2]: 3.51 nM
- koff [2]: 0.000252 s⁻¹
- kon [2]: 72000 M⁻¹ s⁻¹
- t½ [2]: 45.9 min

B2: 12799B (antibody, human IgG1, kappa, V domains shown)
VH: QITLKESGPTLVKPTQTLTLTCTFSGFSLSTSGVGVVWIRQPPGKALEWLALIYWNDHKRYSPSLGSRLTITKDTSKNQVVLTMTNMDPVDTATYYCAHYSGSYSYYYYGLDVWGQGTTVTVSS
VL: DIQMTQSPSSVSASVGDRVTITCRASQGIASWLAWYQQKPGKAPELLIYAASSLQGGVPSRFSGSGSGTDFTLTISSLQPEDFAIYYCQQANYFPWTFGQGTKVEIKR
notes: Tested as bivalent human IgG1 from CHO primary supernatant; also called H1H12799B; REGN17508
- 100 nM Ag Bound (RU) [1]: 651 RU
- Kd [1]: 1.88 nM
- koff [1]: 0.000162 s⁻¹
- kon [1]: 86400 M⁻¹ s⁻¹
- t½ [1]: 71.2 min
- 100 nM Ag Bound (RU) [2]: 699 RU
- Kd [2]: 0.851 nM
- koff [2]: 6.62e-05 s⁻¹
- kon [2]: 77600 M⁻¹ s⁻¹
- t½ [2]: 174 min

B3: 12816B (antibody, human IgG1, kappa, V domains shown)
VH: QVQLVESGGGLVKPGGSLRLSCAASGFTFSDYYMNWIRQAPGKGLEWVSYISSSGTTIYYADSVKGRFTISRDNAKKSLYLEMNSLRAEDTAVYYCAREGYGNDYYYYGIDVWGQGTTVTVSS
VL: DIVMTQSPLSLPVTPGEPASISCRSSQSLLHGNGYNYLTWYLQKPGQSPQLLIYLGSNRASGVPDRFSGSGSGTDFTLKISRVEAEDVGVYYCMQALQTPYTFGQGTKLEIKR
notes: as for B1
- 100 nM Ag Bound (RU) [1]: 315 RU
- Kd [1]: 7.44 nM
- koff [1]: 0.000485 s⁻¹
- kon [1]: 65200 M⁻¹ s⁻¹
- t½ [1]: 23.8 min
- 100 nM Ag Bound (RU) [2]: 357 RU
- Kd [2]: 5.8 nM
- koff [2]: 0.000336 s⁻¹
- kon [2]: 57900 M⁻¹ s⁻¹
- t½ [2]: 34.3 min

B6: 12802B (antibody, human IgG1, kappa, V domains shown)
VH: QVQLVESGGGLVKPGGSLRLSCAASGFTFSDYFMSWIRQAPGKGLEWVSYISSTGSTINYADSVKGRFTISRDNVKNSLYLQMTSLRVEDTAVYYCTRDNWNYEYWGQGTLVTVSS
VL: EIVMTQSPATLSVSPGERATLSCRASQSVSINLAWYQQKPGQAPRLLIFVASTRATGIPARFSGSGSGTEFTLTISSLQSEDFATYYCQQYDIWPYTFGQGTKLEIKR
notes: as for B1
- 100 nM Ag Bound (RU) [1]: 464 RU
- Kd [1]: 7.51 nM
- koff [1]: 0.000529 s⁻¹
- kon [1]: 70500 M⁻¹ s⁻¹
- t½ [1]: 21.8 min
- 100 nM Ag Bound (RU) [2]: 903 RU
- Kd [2]: 0.236 nM
- koff [2]: 2.92e-05 s⁻¹
- kon [2]: 123000 M⁻¹ s⁻¹
- t½ [2]: 395 min

B7: 12808B (antibody, human IgG1, kappa, V domains shown)
VH: QLQLQESGPGLVKPSETLSLTCTVSGESISSNTYYWGWIRQPPGKGLEWIGSIDYSGTTNYNPSLKSRVTISVDTSRNHFSLRLRSVTAADTAVYYCAREWGNYGYYYGMDVWGQGTTVTVSS
VL: DIQMTQSPSSLSASVGDRVTINCRASQGIRNDLGWYQQKPGKAPKRLIYAASSLQSGVPLRFSGSGSGTEFTLTINNLQPEDFATYYCLSHNSYPWTFGQGTKVEIKR
notes: as for B1
- 100 nM Ag Bound (RU) [1]: 626 RU
- Kd [1]: 5.78 nM
- koff [1]: 0.000454 s⁻¹
- kon [1]: 78500 M⁻¹ s⁻¹
- t½ [1]: 25.5 min
- 100 nM Ag Bound (RU) [2]: 964 RU
- Kd [2]: 0.894 nM
- koff [2]: 0.000107 s⁻¹
- kon [2]: 119000 M⁻¹ s⁻¹
- t½ [2]: 108 min

Other lines, results leading:

- 100 nM Ag Bound (RU) [1]: 331 RU
- Kd [1]: 5.9 nM
- koff [1]: 0.000403 s⁻¹
- kon [1]: 68300 M⁻¹ s⁻¹
- t½ [1]: 28.7 min
- 100 nM Ag Bound (RU) [2]: 462 RU
- Kd [2]: 1.16 nM
- koff [2]: 8.08e-05 s⁻¹
- kon [2]: 70000 M⁻¹ s⁻¹
- t½ [2]: 143 min
B4: 69261 (antibody, human IgG1, kappa, V domains shown)
VH: B3 VH with D31V, T56S, K77N, E82Q, A97G, G102S, N103G, D104T, Y106S, I110M
VL: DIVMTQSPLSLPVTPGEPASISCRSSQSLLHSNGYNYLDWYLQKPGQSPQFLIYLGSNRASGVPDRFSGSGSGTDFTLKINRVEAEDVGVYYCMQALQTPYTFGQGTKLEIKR
notes: as for B1

- 100 nM Ag Bound (RU) [1]: 24 RU
- Kd [1]: 19 nM
- koff [1]: 0.0106 s⁻¹
- kon [1]: 558000 M⁻¹ s⁻¹
- t½ [1]: 1.1 min
- 100 nM Ag Bound (RU) [2]: 465 RU
- Kd [2]: 2.45 nM
- koff [2]: 0.00018 s⁻¹
- kon [2]: 73400 M⁻¹ s⁻¹
- t½ [2]: 64.1 min
B5: 69323 (antibody, human IgG1, kappa, V domains shown)
VH: EVQLVESGGGLVQPGRSLRLSCAASGFTFDDYAMHWVRQAPGKGLEWVSGISWNSGYIGYADSVKGRFTISRDNAENSLHLQMNSLRAEDTALYYCARGGSTLVRGVKGGYYGMDVWGQGTTVTVSS
VL: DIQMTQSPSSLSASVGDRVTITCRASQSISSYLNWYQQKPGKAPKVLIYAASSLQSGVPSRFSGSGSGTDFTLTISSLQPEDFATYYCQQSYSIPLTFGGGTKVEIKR
notes: as for B1
